{"source": "paper PMC10786891", "about": "“Massively parallel profiling of RNA-targeting CRISPR-Cas13d”", "data": [{"target": "T1, EsCas13d, nuclease-dead (Eubacterium siraeum, UniProt B0MS50, R295A;H300A;R849A;H854A)", "T1 sequence": "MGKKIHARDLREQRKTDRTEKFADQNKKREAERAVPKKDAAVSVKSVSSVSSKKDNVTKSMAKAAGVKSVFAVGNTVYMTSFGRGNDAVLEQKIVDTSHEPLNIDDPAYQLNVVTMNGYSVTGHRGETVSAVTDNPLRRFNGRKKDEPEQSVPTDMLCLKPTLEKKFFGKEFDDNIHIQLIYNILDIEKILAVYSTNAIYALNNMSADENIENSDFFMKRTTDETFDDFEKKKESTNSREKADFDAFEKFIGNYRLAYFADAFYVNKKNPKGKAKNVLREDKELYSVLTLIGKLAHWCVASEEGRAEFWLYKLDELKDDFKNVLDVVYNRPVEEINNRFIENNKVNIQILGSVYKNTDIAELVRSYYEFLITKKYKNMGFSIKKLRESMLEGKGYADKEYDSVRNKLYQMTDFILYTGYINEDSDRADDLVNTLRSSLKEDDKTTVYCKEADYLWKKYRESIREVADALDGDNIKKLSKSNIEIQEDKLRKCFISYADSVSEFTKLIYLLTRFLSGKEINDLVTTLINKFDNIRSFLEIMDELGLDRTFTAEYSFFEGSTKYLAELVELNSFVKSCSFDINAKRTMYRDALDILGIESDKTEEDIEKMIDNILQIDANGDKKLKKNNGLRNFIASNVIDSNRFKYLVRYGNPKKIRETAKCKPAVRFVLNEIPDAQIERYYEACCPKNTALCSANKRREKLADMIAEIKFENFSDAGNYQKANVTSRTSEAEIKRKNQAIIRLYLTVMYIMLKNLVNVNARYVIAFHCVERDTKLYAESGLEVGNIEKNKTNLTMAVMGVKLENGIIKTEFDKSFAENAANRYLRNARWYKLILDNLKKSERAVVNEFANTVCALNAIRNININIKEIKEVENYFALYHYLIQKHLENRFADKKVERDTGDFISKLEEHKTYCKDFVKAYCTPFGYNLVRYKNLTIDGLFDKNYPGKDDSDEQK", "assay": "crRNA (strand 1, pre-loaded); Mg2+; 40 mM Tris-HCl pH 7.5, 150 mM NaCl, 6 mM MgCl2, 1 mM DTT, 0.1% Tween-20, 0.2 mg/ml BSA; 25 C; 10 min per concentration, then washed", "details": "tags: His6-TwinStrep-SUMO cleaved; N-terminal SNAP kept (SNAP-Surface 488); label: 3' end held by stalled T7 RNA polymerase", "units": {"Kd": "nM"}, "values": [{"binder": "target 1 MT 5'PFS CCU 3'PFS CGC (mixed) RNA 1: CACCCGUGCAAAAAUGCAGGGGUCUAAAACUGAGCGGAUAACCUCUCUAUGG RNA 2: GGGAAUGGAUCCACAUCUACGAAUUCCCUCCAUAGAGAGGUUAUCCGCUCACGCAGAUCGGAAGAGCACACGU", "Kd": "~15.5"}, {"binder": "target 1 MT 5'PFS AAA 3'PFS ACU (mixed) RNA 1: CACCCGUGCAAAAAUGCAGGGGUCUAAAACUGAGCGGAUAACCUCUCUAUGG RNA 2: GGGAAUGGAUCCACAUCUACGAAUUCAAACCAUAGAGAGGUUAUCCGCUCAACUAGAUCGGAAGAGCACACGU", "Kd": "12.1 ± 2.6"}, {"binder": "target 1 MT 5'PFS UCG 3'PFS AUC (mixed) RNA 1: CACCCGUGCAAAAAUGCAGGGGUCUAAAACUGAGCGGAUAACCUCUCUAUGG RNA 2: GGGAAUGGAUCCACAUCUACGAAUUCUCGCCAUAGAGAGGUUAUCCGCUCAAUCAGAUCGGAAGAGCACACGU", "Kd": "42 ± 13"}, {"binder": "target 1 MT 5'PFS GUU 3'PFS UGC (mixed) RNA 1: CACCCGUGCAAAAAUGCAGGGGUCUAAAACUGAGCGGAUAACCUCUCUAUGG RNA 2: GGGAAUGGAUCCACAUCUACGAAUUCGUUCCAUAGAGAGGUUAUCCGCUCAUGCAGAUCGGAAGAGCACACGU", "Kd": "15.5 ± 2.7"}, {"binder": "target 1 MT 5'PFS GAG 3'PFS CGA (mixed) RNA 1: CACCCGUGCAAAAAUGCAGGGGUCUAAAACUGAGCGGAUAACCUCUCUAUGG RNA 2: GGGAAUGGAUCCACAUCUACGAAUUCGAGCCAUAGAGAGGUUAUCCGCUCACGAAGAUCGGAAGAGCACACGU", "Kd": "~49"}, {"binder": "target 1 MT 5'PFS GUU 3'PFS CGC (mixed) RNA 1: CACCCGUGCAAAAAUGCAGGGGUCUAAAACUGAGCGGAUAACCUCUCUAUGG RNA 2: GGGAAUGGAUCCACAUCUACGAAUUCGUUCCAUAGAGAGGUUAUCCGCUCACGCAGAUCGGAAGAGCACACGU", "Kd": "19.8 ± 4.5"}, {"binder": "target 1 MT 5'PFS GAG 3'PFS CGG (mixed) RNA 1: CACCCGUGCAAAAAUGCAGGGGUCUAAAACUGAGCGGAUAACCUCUCUAUGG RNA 2: GGGAAUGGAUCCACAUCUACGAAUUCGAGCCAUAGAGAGGUUAUCCGCUCACGGAGAUCGGAAGAGCACACGU", "Kd": "~100"}, {"binder": "target 1 MT 5'PFS ACC 3'PFS UAG (mixed) RNA 1: CACCCGUGCAAAAAUGCAGGGGUCUAAAACUGAGCGGAUAACCUCUCUAUGG RNA 2: GGGAAUGGAUCCACAUCUACGAAUUCACCCCAUAGAGAGGUUAUCCGCUCAUAGAGAUCGGAAGAGCACACGU", "Kd": "~14.5"}, {"binder": "target 1 C6U,U19C (mixed) RNA 1: CACCCGUGCAAAAAUGCAGGGGUCUAAAACUGAGCGGAUAACCUCUCUAUGG RNA 2: GGGAAUGGAUCCACAUCUACGAAUUCGUACCACAGAGAGGUUAUCUGCUCACCGAGAUCGGAAGAGCACACGU", "Kd": "29.7 ± 2"}, {"binder": "target 1 MT 5'PFS AAC 3'PFS AAC (mixed) RNA 1: CACCCGUGCAAAAAUGCAGGGGUCUAAAACUGAGCGGAUAACCUCUCUAUGG RNA 2: GGGAAUGGAUCCACAUCUACGAAUUCAACCCAUAGAGAGGUUAUCCGCUCAAACAGAUCGGAAGAGCACACGU", "Kd": "84.5 ± 41.5"}, {"binder": "target 1 MT 5'PFS GGA 3'PFS GAG (mixed) RNA 1: CACCCGUGCAAAAAUGCAGGGGUCUAAAACUGAGCGGAUAACCUCUCUAUGG RNA 2: GGGAAUGGAUCCACAUCUACGAAUUCGGACCAUAGAGAGGUUAUCCGCUCAGAGAGAUCGGAAGAGCACACGU", "Kd": "19 ± 6"}, {"binder": "target 1 MT 5'PFS AAC 3'PFS CCG (mixed) RNA 1: CACCCGUGCAAAAAUGCAGGGGUCUAAAACUGAGCGGAUAACCUCUCUAUGG RNA 2: GGGAAUGGAUCCACAUCUACGAAUUCAACCCAUAGAGAGGUUAUCCGCUCACCGAGAUCGGAAGAGCACACGU", "Kd": "19.5 ± 4.45"}, {"binder": "target 1 insU 3' of 13,insU 3' of 13 (mixed) RNA 1: CACCCGUGCAAAAAUGCAGGGGUCUAAAACUGAGCGGAUAACCUCUCUAUGG RNA 2: GGGAAUGGAUCCACAUCUACGAAUUCGUACCAUAGAGAGUUGUUAUCCGCUCACCGAGAUCGGAAGAGCACACGU", "Kd": "6.5 ± 0.6"}, {"binder": "target 1 del4,del8 (mixed) RNA 1: CACCCGUGCAAAAAUGCAGGGGUCUAAAACUGAGCGGAUAACCUCUCUAUGG RNA 2: GGGAAUGGAUCCACAUCUACGAAUUCGUACCAUAGAGAGGUUACCGUCACCGAGAUCGGAAGAGCACACGU", "Kd": "12.1 ± 1"}, {"binder": "target 1 MT 5'PFS AAC 3'PFS AAG (mixed) RNA 1: CACCCGUGCAAAAAUGCAGGGGUCUAAAACUGAGCGGAUAACCUCUCUAUGG RNA 2: GGGAAUGGAUCCACAUCUACGAAUUCAACCCAUAGAGAGGUUAUCCGCUCAAAGAGAUCGGAAGAGCACACGU", "Kd": "34.5 ± 15"}, {"binder": "target 1 MT 5'PFS AGG 3'PFS CAG (mixed) RNA 1: CACCCGUGCAAAAAUGCAGGGGUCUAAAACUGAGCGGAUAACCUCUCUAUGG RNA 2: GGGAAUGGAUCCACAUCUACGAAUUCAGGCCAUAGAGAGGUUAUCCGCUCACAGAGAUCGGAAGAGCACACGU", "Kd": "~41"}, {"binder": "target 1 MT 5'PFS CCG 3'PFS ACA (mixed) RNA 1: CACCCGUGCAAAAAUGCAGGGGUCUAAAACUGAGCGGAUAACCUCUCUAUGG RNA 2: GGGAAUGGAUCCACAUCUACGAAUUCCCGCCAUAGAGAGGUUAUCCGCUCAACAAGAUCGGAAGAGCACACGU", "Kd": "38.5 ± 13"}, {"binder": "target 1 MT 5'PFS GUU 3'PFS UGU (mixed) RNA 1: CACCCGUGCAAAAAUGCAGGGGUCUAAAACUGAGCGGAUAACCUCUCUAUGG RNA 2: GGGAAUGGAUCCACAUCUACGAAUUCGUUCCAUAGAGAGGUUAUCCGCUCAUGUAGAUCGGAAGAGCACACGU", "Kd": "34.5 ± 6.5"}, {"binder": "target 1 MT 5'PFS GCA 3'PFS UCU (mixed) RNA 1: CACCCGUGCAAAAAUGCAGGGGUCUAAAACUGAGCGGAUAACCUCUCUAUGG RNA 2: GGGAAUGGAUCCACAUCUACGAAUUCGCACCAUAGAGAGGUUAUCCGCUCAUCUAGAUCGGAAGAGCACACGU", "Kd": "10.6 ± 2.55"}, {"binder": "target 1 MT 5'PFS UUG 3'PFS CUU (mixed) RNA 1: CACCCGUGCAAAAAUGCAGGGGUCUAAAACUGAGCGGAUAACCUCUCUAUGG RNA 2: GGGAAUGGAUCCACAUCUACGAAUUCUUGCCAUAGAGAGGUUAUCCGCUCACUUAGAUCGGAAGAGCACACGU", "Kd": "14.4 ± 3.55"}, {"binder": "target 1 MT 5'PFS GCA 3'PFS AGC (mixed) RNA 1: CACCCGUGCAAAAAUGCAGGGGUCUAAAACUGAGCGGAUAACCUCUCUAUGG RNA 2: GGGAAUGGAUCCACAUCUACGAAUUCGCACCAUAGAGAGGUUAUCCGCUCAAGCAGAUCGGAAGAGCACACGU", "Kd": "28.5 ± 14"}, {"binder": "target 1 MT 5'PFS GGC 3'PFS CCA (mixed) RNA 1: CACCCGUGCAAAAAUGCAGGGGUCUAAAACUGAGCGGAUAACCUCUCUAUGG RNA 2: GGGAAUGGAUCCACAUCUACGAAUUCGGCCCAUAGAGAGGUUAUCCGCUCACCAAGAUCGGAAGAGCACACGU", "Kd": "31.5 ± 10.5"}, {"binder": "target 1 MT 5'PFS GUU 3'PFS UGA (mixed) RNA 1: CACCCGUGCAAAAAUGCAGGGGUCUAAAACUGAGCGGAUAACCUCUCUAUGG RNA 2: GGGAAUGGAUCCACAUCUACGAAUUCGUUCCAUAGAGAGGUUAUCCGCUCAUGAAGAUCGGAAGAGCACACGU", "Kd": "16.8 ± 2.5"}, {"binder": "target 1 MT 5'PFS ACC 3'PFS UAC (mixed) RNA 1: CACCCGUGCAAAAAUGCAGGGGUCUAAAACUGAGCGGAUAACCUCUCUAUGG RNA 2: GGGAAUGGAUCCACAUCUACGAAUUCACCCCAUAGAGAGGUUAUCCGCUCAUACAGAUCGGAAGAGCACACGU", "Kd": "31 ± 14.5"}, {"binder": "target 1 MT 5'PFS GUU 3'PFS CGA (mixed) RNA 1: CACCCGUGCAAAAAUGCAGGGGUCUAAAACUGAGCGGAUAACCUCUCUAUGG RNA 2: GGGAAUGGAUCCACAUCUACGAAUUCGUUCCAUAGAGAGGUUAUCCGCUCACGAAGAUCGGAAGAGCACACGU", "Kd": "19.7 ± 4.2"}, {"binder": "target 1 MT 5'PFS AAA 3'PFS CAC (mixed) RNA 1: CACCCGUGCAAAAAUGCAGGGGUCUAAAACUGAGCGGAUAACCUCUCUAUGG RNA 2: GGGAAUGGAUCCACAUCUACGAAUUCAAACCAUAGAGAGGUUAUCCGCUCACACAGAUCGGAAGAGCACACGU", "Kd": "29.5 ± 11.5"}, {"binder": "target 1 MT 5'PFS UCG 3'PFS AUU (mixed) RNA 1: CACCCGUGCAAAAAUGCAGGGGUCUAAAACUGAGCGGAUAACCUCUCUAUGG RNA 2: GGGAAUGGAUCCACAUCUACGAAUUCUCGCCAUAGAGAGGUUAUCCGCUCAAUUAGAUCGGAAGAGCACACGU", "Kd": "32.5 ± 10.5"}, {"binder": "target 1 MT 5'PFS GGC 3'PFS CCG (mixed) RNA 1: CACCCGUGCAAAAAUGCAGGGGUCUAAAACUGAGCGGAUAACCUCUCUAUGG RNA 2: GGGAAUGGAUCCACAUCUACGAAUUCGGCCCAUAGAGAGGUUAUCCGCUCACCGAGAUCGGAAGAGCACACGU", "Kd": "8.35 ± 1.4"}]}]}
